# Results taken from US20170189513A1.
# Where no end group is shown, it is not given here.
# Molecular target: HLA-A*24 (human)
# Experiment: UV-ligand exchange, b2m ELISA
row,Binder,peptide exchange yield
1,FFPPTRQMGLLF [… (SEQ ID No 217)],> 75%
2,VFQNFPLLF [… (SEQ ID No 184)],> 75%
3,VFKASKITF [… (SEQ ID No 191)],50 to 75%
4,EFGSLHLEFL [… (SEQ ID No 194)],< 20%
5,VHIPEVYLI [… (SEQ ID No 205)],50 to 75%
6,VYPWLGALL [… (SEQ ID No 177)],> 75%
7,IYKVGAPTI [… (SEQ ID No 185)],50 to 75%
8,IYQLDTASI [… (SEQ ID No 182)],50 to 75%
9,TYTQDFNKF [… (SEQ ID No 208)],50 to 75%
10,FYSRLLQKF [… (SEQ ID No 203)],50 to 75%
11,YYLEVGKTLI [… (SEQ ID No 211)],> 75%
12,VFTSTARAF [… (SEQ ID No 183)],50 to 75%
13,YFDKVVTL [YFDKVVTL (SEQ ID No 215)],20 to 49%
14,LYLDIINLF [… (SEQ ID No 181)],> 75%
15,EYQENFLSF [… (SEQ ID No 206)],50 to 75%
16,IYTMIYRNL [… (SEQ ID No 210)],> 75%
17,WYVNGVNYF [… (SEQ ID No 189)],20 to 49%
18,RYFKGLVF [RYFKGLVF (SEQ ID No 188)],50 to 75%
19,GFFIFNERF [… (SEQ ID No 190)],50 to 75%
20,TYTTVPRVAF [… (SEQ ID No 172)],> 75%
21,LYLDKATLI [… (SEQ ID No 198)],50 to 75%
22,LYLKLWNLI [… (SEQ ID No 214)],50 to 75%
23,SYALLTYMI [… (SEQ ID No 192)],> 75%
24,IFIEVFSHF [… (SEQ ID No 178)],50 to 75%
25,MYDSYWRQF [… (SEQ ID No 179)],> 75%
26,RFHPTPLLL [… (SEQ ID No 193)],> 75%
27,TYLRDQHFL [… (SEQ ID No 187)],> 75%
28,IFPQFLYQF [… (SEQ ID No 186)],> 75%
29,IYDDSFIRPVTF [… (SEQ ID No 180)],50 to 75%
30,QYSSVFKSL [… (SEQ ID No 216)],> 75%
